# Source: patent US20140221287A1, “Amylin Peptides and Derivatives and Uses Thereof” (ASTRAZENECA PHARMACEUTICALS LP, priority 2011, published 2014)
# No end group written: not given here.
# Target: amylin receptor in membranes prepared from the nucleus accumbens portion of the brain (rat) (rat)
# Test: displacement of 125I-rat amylin from rat nucleus accumbens membranes
row,Binder,IC50 [nM]
1,"CNTATCATQRLANFLVRSSK(mPEG40KD)NLGPVLPPTNVGSNTY-NH2 (ends and bridges not checked) [Cmpd 22, [K^21(mPEG40KD)]-Cmpd 4]",112
2,"KCNTATCATQRLANFLVRSSNNLGPK(Y‑shaped‑mPEG40KD)LPPTNVGSNTY-NH2 (ends and bridges not checked) [Cmpd 27, [K^26(Y-shaped-mPEG4OKD)]-Cmpd 5]",470
3,CNTATCATQRLANFLVRSSNNLGPVLPPTNVGSNTY-NH2 (ends and bridges not checked) [Cmpd 2 ([desLys^1]-Cmpd 1)],0.42
4,"CNTATCATQRLANFLVRSSNNLGPVLPPTK(mPEG40KD)VGSNTY-NH2 (ends and bridges not checked) [Cmpd 26, [K^31(mPEG40KD)]-Cmpd 8]",75
5,"KCNTATCATQRLANFLVRSSK(mPEG40KD)NLGPVLPPTNVGSNTY-NH2 (ends and bridges not checked) [Cmpd 21, [K^21(mPEG40KD)]-Cmpd 3]",104
6,"KCNTATCATQRLANFLVRSSNNLGPVLPPTK(mPEG40KD)VGSNTY-NH2 (ends and bridges not checked) [Cmpd 25, [K^31(mPEG40KD)]-Cmpd 7]",86
7,"mPEG40KD-CNTATCATQRLANFLVRSSNNLGPVLPPTNVGSNTY-NH2 (ends and bridges not checked) [Cmpd 20, mPEG40KD-Cmpd 2]",78
8,"KCNTATCATQRLANFLVRSSNNLGPK(mPEG40KD)LPPTNVGSNTY-NH2 (ends and bridges not checked) [Cmpd 23, [K^26(mPEG40KD)]-Cmpd 5]",66
9,"CNTATCATQRLANFLVRSSNNLGPK(mPEG40KD)LPPTNVGSNTY-NH2 (ends and bridges not checked) [Cmpd 24, [K^26(mPEG40KD)]-Cmpd 6]",54
